B1: TPR t1 (parent)
chain: GACCAAUCUGCCCUCAGAGCUCGAGAACAUCUUCGGAUGCAGAGGAGGCAGGCUUCGGUGGCGCGAUAGCGCCAACGUCCUCAACCUCCAAUGCAUCCCACCACAUGAUGAUGCCUGAAGAGCCUUGGUUUUUUG

Variants of: B1
Test: polymerase ribozyme fitness, log enrichment relative to wild type (log ratio); higher = more active; in vitro selection for triplet polymerase activity
In short: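 In triplicate, a single round of in vitro selection was run on each mutant library, PCR-built and transcribed, covering one subunit of a heterodimeric triplet polymerase ribozyme. Frozen incubation at −7 °C followed annealing with a biotinylated primer, partner subunit and triplets, and extended constructs were then gel-excised, streptavidin-captured and taken through RT-PCR. Fitness is the logarithm of genotype enrichment over wild-type enrichment, from inverse-variance-weighted replicate averages of Illumina-sequenced inputs and outputs. […] only genotypes with ≥10 input reads and ≥1 read per output were kept.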

| Variant | polymerase ribozyme fitness (log ratio) |
| --- | --- |
| C20U A46U | -2.88 |
| C20G C73A C115G | -5.35 |
| U21A C28A G71A C79U U81A G110C | -6.99 |
| C20U C70G | -3.54 |
| C20U C70A | -3.13 |
| C20U A90U C123U | -1.5 |
| C20G U96G | -3.91 |
| C20U A43G G69C C88U U130A | -5.74 |
| C20U U21G C49A C98U | -4.2 |
| U21A C89G | -2.25 |
| C20U C49U G71C A90U G117U | -6.09 |
| C20G U112A | -2.38 |
| C20U G61C C82A C124G | -1.38 |
| U21A A50G C72U A95G A105C | -2.73 |
| C20U C49G G52C C72A G93U G117U A119G G128U | -4.52 |
| C20G G25C | -6.42 |
| C20U G48U A91C C94G | -4.07 |
| C20G U32A G44C A111C G113U | -2.86 |
| U21A C89U G110A U112C | -2.24 |
| U21A C104U G117A G120U | -3.67 |
| C20U G42A G71U C80U C82A U112C | -2.53 |
| U21A A43U | -1.83 |
| C20G G61A A90C A95U | -3.88 |
| C20G U32G A90U G93U U109C | -4.13 |

| Variant | polymerase ribozyme fitness (log ratio) |
| --- | --- |
| U21A G60A C86U | -1.23 |
| C20U A29G G61U C115A U116C G117U G135C | -1.97 |
| U21A A43U C72U U129A | -3.56 |
| C20U C40U A43U G93U | -4.35 |
| C20U G63A | -1.73 |
| C20U G63C | -2.1 |
| C20A G58C C72U C76U | -3.69 |
| U21A U81A | -1.49 |
| C20U G63U A118G U132A | -2.9 |
| U21A G39U C64U A91C | -2.67 |
| C20A U54G C64G G113C | -7.15 |
| C20U C56U C70U A84U U130C | -2.96 |
| C20U C73U A95C U129A | -4.3 |
| C20U C115U | -1.73 |
| U21A G52C C56A C76U C101U | -3.81 |
| C20U C64A C98A G117U | -6.4 |
| U21A G35U A74U A111U | -6.43 |
| C20G C40U G42U C56A | -4.45 |
| C20U A43C G47A C82G A95U A105C U112A | -4.61 |
| C20U U81A | -1.98 |
| C20U C40U C70U G120C | -1.36 |
| C20U A111C | -1.7 |
| C20U A75G | -0.924 |
| C20A G117U U133A | -4.77 |

| Variant | polymerase ribozyme fitness (log ratio) |
| --- | --- |
| C20U G45A G93U | -4.76 |
| U21A G44U C97U G113A | -2.33 |
| C20U C98U | -1.43 |
| C20G C88U C114G U130C U132A | -5.66 |
| C20U G113U G120U | -3.12 |
| C20U C56U | -1.64 |
| C20U C56G | -1.53 |
| U21A A90C | -1.58 |
| U21A G42U C98U C104U C114G C124A | -5.22 |
| U21A A46G C114G | -3.92 |
| U21A A26G C73U G77A | -2.54 |
| U21A C102G G113U A118U U129G | -6.08 |
| U21A U54C G93C | -1.26 |
| C20U G44A C64U | -2.89 |
| U21A C97G | -4.44 |
| C20G G110C G120C | -6.34 |
| U21A U38G C56A U78C | -1.08 |
| C20G G52U | -5.6 |
| U21A G61C | -1.97 |
| C20U C89U A95U C115U | -3.32 |
| C20U C62G C101U G110C | -6.8 |
| C20G G39C A90U C94U G113U C115U U116G | -1.36 |
| U21A A24G | -1.64 |
| C20G G44A | -5.14 |

| Variant | polymerase ribozyme fitness (log ratio) |
| --- | --- |
| U21A G61C U112A U133C | -0.24 |
| C20U A37U C79U U112A | 0.591 |
| C20A G61C U133G | -4.9 |
| C20U A27U C64U G113A | -3.6 |
| C20U G117U A119U | -4.12 |
| C20G C49G | -5.11 |
| C20G G42A G45A U54G C79U C123U | -6.38 |
| C20A U21A U54C C94U U109G | -5.29 |
| C20G A27G G120A | -5.6 |
| C20A G39U G42A U55C C99U G113C G122A C123U | -6.79 |
| C20U G47C A75U A91U | -4.77 |
| U21A C56U C62U C85G | -3.76 |
| C20U G45C | -3.07 |
| C20G C86A | -4.53 |
| C20G C53G G57C A91G | -5.64 |
| C20U G71U | -1.29 |
| C20U G93A | -1.32 |
| C20G A100U U112G | -5.11 |
| U21A C70A | -3.21 |
| C20A G69U C104A | -2.59 |
| U21A C22A A27C C89U C114U A121U | -3.32 |
| U21A C49U G63U | -3.27 |
| C20U G60U C72U C94U | -1.4 |
| C20U G48A C53U C99U | -5.43 |

| Variant | polymerase ribozyme fitness (log ratio) |
| --- | --- |
| C20A G47A | -3.54 |
| C20U C56G G63C | -5.5 |
| C20U U92A | -4.08 |
| C20G C64A C70G G113A U125G U133G | -5.92 |
| U21A U59A U81G C82G C115U | -5.96 |
| C20A U92G G122U | -4.6 |
| C20U C102A | -3.26 |
| C20U C102U | -2.92 |
| C20A G45U A100U | -5.17 |
| C20A G57A C72A U87A | -4.5 |
| U21A A50G A95G A105C | -3.34 |
| C20A G77A G135U | -3.74 |
| C20A U96A | -4.02 |
| C20G C124G | -3.06 |
| C20U U33G C123U | -6.12 |
| C20U G42U U55G G69C U87C | -4.35 |
| C20U G52U C72U | -3.02 |
| C20A G61C | -4.5 |
| C20G A119U | -4.11 |
| C20G C34A A41G C53A G69C G120C | -6.31 |
| U21A G61C C114A | -2.8 |
| U21A G36C G113U U133A | -2.25 |
| U21A G47C | -1.67 |
| C20A G48U A50U G120U U132C | -4.56 |

| Variant | polymerase ribozyme fitness (log ratio) |
| --- | --- |
| U21A A29C G48A | -3.86 |
| C20U G61A C98A | -5.48 |
| C20U C72U | -1.9 |
| U21A G42C U59C U130G | -2.41 |
| C20G C34U G63A C79U C99U A111C | -5.53 |
| C20A U131G | -2.8 |
| C20A G45A G113U | -0.291 |
| U21A A103U | -6.15 |
| C20G C72G | -4.5 |
| C20U G45A C53G | -1.22 |
| C20U G60U U78A G113C | -2.3 |
| C20A G60U U92C A121C | -2.4 |
| C20U C28U C72A C94U | -1.9 |
| C20U C85U A100U | -3.48 |
| C20G G61A | -3.66 |
| C20U A95G | -1.47 |
| C20U C34A | -4.05 |
| C20U C34G | -6.47 |
| C20A G57C C62U G120C | -2.1 |
| U21A A29G A43U C56G A83C A91C G120U | -5.54 |
| U21A A41U A90G | -0.995 |
| C20A G52A G60A C98A C99U A105G C114A | -5.87 |
| C20U U78C | -1.11 |
| C20U G110C | -4.31 |

| Variant | polymerase ribozyme fitness (log ratio) |
| --- | --- |
| U21A G23A C76G G113U | -7.66 |
| C20U C49U A90U G117U | -4.34 |
| C20A G39A C80U A91C | -6.34 |
| C20A U129C | -3.02 |
| C20G C123U U126A | -3.94 |
| U21A C34A A37G C98G | -2.68 |
| C20G U109G | -3.38 |
| U21A C72G | -0.599 |
| U21A C72U | -2.3 |
| C20G U21A U112A | -0.639 |
| C20U C62G | -3.42 |
| C20U C62U | -1.15 |
| U21A G45U G63A G113C | -6.02 |
| C20U G36A G122A G127C G135U | -5.15 |
| C20U A27G | -3.07 |
| C20U C56U G93A C114G U129G | -2.17 |
| U21A G52A A75U C115A C124A | 1.07 |
| C20U G61A | -1.13 |
| C20U G61C | -2.87 |
| C20U A46G C94U G107A U109G G120A | -5.88 |
| C20U U32G C73G C97U C123U | -5.73 |
| C20U G25C C64A C70U C98G A111U | -6.27 |
| C20U U59A C76G | -2.85 |
